Laboratory results from US20150267232A1, “IN VIVO AND IN VITRO CARBENE INSERTION AND NITRENE TRANSFER REACTIONS CATALYZED BY HEME ENZYMES” (California Institute of Technology, priority 2012, published 2015).
Where a chain is given by its changes, count along the chain named. Names and notes keep the numbering of the source.

B1: BM3-CIS: 9-10A TS + F87V, T268A (protein, listed as Bacillus megaterium)
chain: TIKEMPQPKTFGELKNLPLLNTDKPVQALMKIADELGEIFKFEAPGRVTRYLSSQRLIKEACDESRFDKNLSQALKFARDFAGDGLVTSWTHEKNWKKAHNILLPSFSQQAMKGYHAMMVDIAVQLVQKWERLNADEHIEVSEDMTRLTLDTIGLCGFNYRFNSFYRDQPHPFIISMVRALDEVMNKLQRANPDDPAYDENKRQFQEDIKVMNDLVDKIIADRKARGEQSDDLLTQMLNGKDPETGEPLDDGNIRYQIITFLIAGHEATSGLLSFALYFLVKNPHVLQKVAEEAARVLVDPVPSYKQVKQLKYVGMVLNEALRLWPTAPAFSLYAKEDTVLGGEYPLEKGDEVMVLIPQLHRDKTVWGDDVEEFRPERFENPSAIPQHAFKPFGNGQRACIGQQFALHEATLVLGMMLKHFDFEDHTNYELDIKETLTLKPKGFVVKAKSKKIPLGGIPSPSTEQSAKKVRKKAENAHNTPLLVLYGSNMGTAEGTARDLADIAMSKGFAPQVATLDSHAGNLPREGAVLIVTASYNGHPPDNAKQFVDWLDQASADEVKGVRYSVFGCGDKNWATTYQKVPAFIDETLAAKGAENIADRGEADASDDFEGTYEEWREHMWSDVAAYFNLDIENSEDNKSTLSLQFVDSAADMPLAKMHGAFSTNVVASKELQQPGSARSTRHLEIELPKEASYQEGDHLGVIPRNYEGIVNRVTARFGLDASQQIRLEAEEEKLAHLPLAKTVSVEELLQYVELQDPVTRTQLRAMAAKTVCPPHKVELEALLEKQAYKEQVLAKRLTMLELLEKYPACEMKFSEFIALLPSIRPRYYSISSSPRVDEKQASITVSVVSGEAWSGYGEYKGIASNYLAELQEGDTITCFISTPQSEFTLPKDPETPLIMVGPGTGVAPFRGFVQARKQLKEQGQSLGEAHLYFGCRSPHEDYLYQEELENAQSEGIITLHTAFSRMPNQPKTYVQHVMEQDGKKLIELLDQGAHFYICGDGSQMAPAVEATLMKSYADVHQVSEADARLWLQQLEEKGRYAKDVWAG
modifications: cytochrome P450NADPH-P-450 reductase precursor, cytochrome P450 (BM3), CYP102A1
notes: 9-10A TS + F87V, T268A
B2: H2A10: 9-10A TS + F87V, L75A, L181A, T268A (protein, listed as Bacillus megaterium)
chain: B1 chain with L75A, L181A
modifications: cytochrome P450NADPH-P-450 reductase precursor, cytochrome P450 (BM3), CYP102A1
notes: 9-10A TS + F87V, L75A, L181A, T268A
B3: H2-4-D4: 9-10A TS + F87V, L75A, M177A, L181A, T268A, L437A (protein, listed as Bacillus megaterium)
chain: B1 chain with L75A, M177A, L181A, L437A
modifications: cytochrome P450NADPH-P-450 reductase precursor, cytochrome P450 (BM3), CYP102A1
notes: 9-10A TS + F87V, L75A, M177A, L181A, T268A, L437A

Legend:
Assay type in all cases: biochemical
[1] = Small-scale anaerobic C—H amination with purified enzymes, azide 1; conditions: catalyst loading 0.5 mol %; NADPH; anaerobic
Method: Activities are presented in TTN. […] Yields and enantioselectivies determined by HPLC analysis. * (S−R)/(S+R). nd=not determined.
Enzymes used as purified catalysts were expressed as previously described (Lewis, J. C. et al., Proc. Natl. Acad. Sci. U.S.A. 106, 16550-16555 (2009)), and were purified by anion-exchange chromatography (for holoenzymes) or Ni-NTA chromatography (for isolated heme domains). Concentrations of P450 or P411 enzymes were determined as previously reported (Omura, T. & Sato, R., J. Biol. Chem. 239, 2370-2378 (1964); Vatsis, K. P. et al., J. Inorg. Biochem. 91, 542-553 (2002)). Small-scale reactions (400 μL) were conducted in 2 mL crimp vials containing degassed buffer (0.1 M potassium phosphate pH 8.0), enzyme (0.1-0.5% catalyst loading) and oxygen depletion system (10× stock solution containing 14,000 U/mL catalase, 1,000 U/mL glucose oxidase dissolved in 0.1 M KPi pH 8.0). Enzyme (P450 or P411) solution and oxygen depletion mixture were added to the vial with a small stir bar before crimp-sealing. […] Reactions were stirred at room temperature for 24 h under positive argon pressure.
Small-scale reactions (400 μL) were conducted in 2 mL crimp vials (Agilent Technologies, San Diego, Calif.) containing buffer (0.1 M potassium phosphate pH 8.0), enzyme (0.1-0.5% catalyst loading) and oxygen depletion system (10× stock solution containing 14,000 U/mL catalase, 1,000 U/mL glucose oxidase dissolved in 0.1 M KPi pH 8.0). Enzyme (P450 or P411) solution and oxygen depletion mixture were added to the vial with a small stir bar before crimp-sealing. […] In the meantime, the headspace of the sealed 2 mL reaction vial with the P450 solution was made anaerobic by flushing argon over the protein solution (with no bubbling). The buffer/reductant/glucose solution (270 μL) was syringed into the reaction vial with continuous argon purge of the vial headspace. An arylsulfonyl azide solution in DMSO (10 μL, 80 mM) was added to the reaction vial via a glass syringe, and the reaction was left stirring for 24 h at room temperature under positive argon pressure. […] Reactions were quenched by adding 30 μL 3 M HCl under argon. To the vials were then added acetonitrile (430 uL) and internal standard (o-toluenesulfonamide 10 mM in 50% acetonitrile 50% water, 1 mM final concentration). This mixture was then transferred to a microcentrifuge tube, and centrifuged at 17,000×g for 10 minutes. A portion (20 μL) of the supernatant was then analyzed by HPLC. For LC-MS analysis, the quenched reaction mixture was extracted twice with ethyl acetate (2×350 μL), dried under a light argon stream and resuspended in 50% water-acetonitrile (100 μL). For chiral HPLC the reactions were extracted as above with ethyl acetate, dried and resuspended in DMSO (100 μL) and then C18 purified as described above. The C18 purified material was dried, and resuspended in acetonitrile, and then injected onto the chiral HPLC system for analysis. Sultam formation was quantified comparison of integrated peak areas of internal standard and sultam at 220 nm to a calibration curve made using synthetically produced sultam and internal standard.
Purified enzymes were screened for activity in small scale reactions (400 μL) under anaerobic conditions as described above. Reactions were carried out using 0.5% mol of enzyme (10 μM) with respect to the triethylsulfonyl azide substrate 1 (2 mM). Standard reaction conditions described above were employed. Diethyl benzosultam product 3 (FIG. 18) was analyzed and quantified by reversed-phase HPLC (see above).
Small-scale reactions (400 μL total volume) were set up and worked up. Control reactions were performed with both the holoenzyme (BM3 with covalently linked reductase domain) and the isolated heme domain. […] Reactions of the complete system with heme domain (CS heme) included 2 mM Na2S2O4 rather than NADPH unless otherwise indicated in the table. […]

[2] = N—H insertion, aniline with ethyl diazo acetate (EDA); conditions: protein 10 uM, EDA 8.5 mM, aniline 20 mM, Na2S2O4 10 mM, 12 h; for % Yield: product 4.3
Source text: We have found a variety of P450 variants to be general catalysts for carbenoid N—H insertion. We combined aniline with EDA in the presence of a reductant (Na2S2O4) under argon atmosphere and tested the mixture with seven P450BM3 variants previously identified as competent catalysts for cyclopropanation (Coelho, P. et al., Science. 2013, 339, 307-310). In choosing this set of P450s, we hypothesized that cyclopropanation activity could correlate with ability to generate the iron-carbenoid intermediate that is also necessary for N—H insertion. Whereas wild type BM3 (WT-BM3 (SEQ ID NO:1), Table 20, entry 1) provided only trace amounts of the desired product (4.3), a few variants gave 4.3 in good yields after 12 h at room temperature. In particular, variant H2-5-F10 which is derived from a thermostable P450BM3 lineage (Lewis, J. C. et al. ChemBioChem, 2010, 11, 2502-2505) and contains 15 mutation from WT-BM3 (SEQ ID NO:1), formed 4.3 in 47% yield and 473 turnovers (TTN) using 0.1% protein relative to EDA (entry 7). […] In contrast, when 1 mol % of the isolated hemin prosthetic group was used as catalyst, the single and double insertion products were produced in a 3.5 to 1 ratio (with a total product yield of 51%).
A representative procedure for P450-catalyzed N—H insertion is as follows. To an unsealed crimp vial, 60 μL of a P450 solution (67 or 133 μM) was added and the vial was sealed. A 12.5 mM solution of sodium dithionite in phosphate buffer (0.1 M, pH=8.0) was degassed by bubbling with argon in a 6 mL crimp-sealed vial. The headspace of the 2 mL vials containing P450 solution were flushed with argon (no bubbling). The buffer/dithionite solution (360 μL) was then added to each reaction vial via syringe, and the gas lines were disconnected from the vials. 10 μL of an 800 mM stock of aniline was added via a glass syringe, followed by 10 μL of a 340 mM stock of EDA (both stocks in MeOH). The reaction vials were then placed in a tray on a plate shaker and left to shake at 40 rpm. The final concentrations of the reagents were typically: 20 mM aniline, 8.5 mM EDA, 10 mM Na2S2O4, and 10 or 20 μM P450. After 12 h at 25° C., the vials were removed from the shaker and uncapped and 1 mL of cyclohexane was added, followed by 20 μL of a 20 mM solution of phenethyl alcohol (internal standard). The mixture was transferred to a 1.5 mL Eppendorf tube and vortexed and centrifuged (13,000×g, 1 min.). The organic layer was dried over sodium sulfate if necessary then analyzed by GC, with comparison to an authentically prepared sample that has been verified by proton NMR ([…], Varian, CDCl3).
Substitution is well-tolerated on the aniline partner on both the ortho and para positions. Reactions were analyzed by a Shimadzu GC with FID detector and J&W HP-5 column (30 m×0.32 mm, 0.25 μm film) and calibrated to an independently prepared sample of each product using phenethyl alcohol as internal standard. Reaction of aniline and EDA was also performed in milligram scale without any organic cosolvent to provide 4.3 in 65% isolated yield.
Calibration curves were plotted as follows. Yields of N—H insertion products were determined using calibration curves made with independently synthesized standards that have been verified by proton NMR, with comparison to known literature data (Baumann, L. K. et al. Organometallics. 2007, 26, 3995-4002; Anding, B. J. et al. Organometallics. 2013, 32, 2599-2607). Two stock solutions of product were made at 160 mM and 40 mM. To four or five samples containing 380 μL of buffer, product was added from either of the stock solutions such at a final concentration of 0.5-8.0 mM in 400 μL was obtained. 20 μL of internal standard was added to each eppendorf tube, then 1 mL of cyclohexane was added and the tubes were vortexed and centrifuged (13,000 ×g, 30 seconds). The organic layer was then analyzed by GC. The ratio of the areas under the internal standard and product peaks were plotted against the concentration for each solution. […]

[3] = P450BM3 compilation plate screen (GC, cyclopropane peaks); conditions: P450BM3 variants; for ee (cis): (R,S)-(S,R), chiral β-CDX GC; for de: diastereomeric excess = ([cis] − [trans])/([cis] + [trans]); for Absolute activity: sum of the area of the cyclopropane peaks over the area of the internal standard

Molecule	TTN (C—H amination product 3) [1]	TTn [2]	% Yield [2] [%]	ee (cis) [3]	de [3]	Absolute activity [3]
B1	9	363	36	–	–	–
B2	–	238	24	−94	−8	0.06642
B3	–	340	34	−84	57	0.05244
